For five proteins, K0.5-mut/K0.5-wt results are on record in patent publication US20210230570.

The data set deals with plasma purified human antithrombin III (AT-III) in complex with full-length unfractionated heparin (UFH).

Some results are limits rather than exact numbers.

B1: FIXa K247N/N249S/R318Y/R338E/E410N (protein)
chain 1: YNSGKLEEFVQGNLERECMEEKCSFEEAREVFENTERTTEFWKQYVDGDQCESNPCLNGGSCKDDINSYECWCPFGFEGKNCELDVTCNIKNGRCEQFCKNSADNKVVCSCTEGYRLAENQKSCEPAVPFPCGRVSVSQTSKLTR
chain 2: VVGGEDAKPGQFPWQVVLNGKVDAFCGGSIVNEKWIVTAAHCVETGVKITVVAGEHNIEETEHTEQNRSVIRIIPHHNYNAAINKYNHDIALLELDEPLVLNSYVTPICIADKEYTNIFLKFGSGYVSGWGRVFHKGYSALVLQYLRVPLVDRATCLESTKFTIYNNMFCAGFHEGGRDSCQGDSGGPHVTEVEGTSFLTGIISWGEECAMKGKYGIYTKVSRYVNWIKNKTKLT
B1 showed a K0.5-mut/K0.5-wt of 78.3 fold.

B2: FIXa R318Y/R338E/R403E/E410S (protein)
chain 1: YNSGKLEEFVQGNLERECMEEKCSFEEAREVFENTERTTEFWKQYVDGDQCESNPCLNGGSCKDDINSYECWCPFGFEGKNCELDVTCNIKNGRCEQFCKNSADNKVVCSCTEGYRLAENQKSCEPAVPFPCGRVSVSQTSKLTR
chain 2: VVGGEDAKPGQFPWQVVLNGKVDAFCGGSIVNEKWIVTAAHCVETGVKITVVAGEHNIEETEHTEQKRNVIRIIPHHNYNAAINKYNHDIALLELDEPLVLNSYVTPICIADKEYTNIFLKFGSGYVSGWGRVFHKGYSALVLQYLRVPLVDRATCLESTKFTIYNNMFCAGFHEGGRDSCQGDSGGPHVTEVEGTSFLTGIISWGEECAMKGKYGIYTKVSEYVNWIKSKTKLT
Consider B2, for which the K0.5-mut/K0.5-wt is over 517 fold.

B3: FIXa Y155F/K247N/N249S/R318Y/R338E/E410N (protein)
chain 1: YNSGKLEEFVQGNLERECMEEKCSFEEAREVFENTERTTEFWKQYVDGDQCESNPCLNGGSCKDDINSYECWCPFGFEGKNCELDVTCNIKNGRCEQFCKNSADNKVVCSCTEGYRLAENQKSCEPAVPFPCGRVSVSQTSKLTR
chain 2: VVGGEDAKPGQFPWQVVLNGKVDAFCGGSIVNEKWIVTAAHCVETGVKITVVAGEHNIEETEHTEQNRSVIRIIPHHNYNAAINKYNHDIALLELDEPLVLNSYVTPICIADKEYTNIFLKFGSGYVSGWGRVFHKGYSALVLQYLRVPLVDRATCLESTKFTIYNNMFCAGFHEGGRDSCQGDSGGPHVTEVEGTSFLTGIISWGEECAMKGKYGIYTKVSRYVNWIKNKTKLT
The protein B3 yielded a K0.5-mut/K0.5-wt of 200 fold.

B4: FIXa R318Y/R338E/E410S (protein)
chain 1: YNSGKLEEFVQGNLERECMEEKCSFEEAREVFENTERTTEFWKQYVDGDQCESNPCLNGGSCKDDINSYECWCPFGFEGKNCELDVTCNIKNGRCEQFCKNSADNKVVCSCTEGYRLAENQKSCEPAVPFPCGRVSVSQTSKLTR
chain 2: VVGGEDAKPGQFPWQVVLNGKVDAFCGGSIVNEKWIVTAAHCVETGVKITVVAGEHNIEETEHTEQKRNVIRIIPHHNYNAAINKYNHDIALLELDEPLVLNSYVTPICIADKEYTNIFLKFGSGYVSGWGRVFHKGYSALVLQYLRVPLVDRATCLESTKFTIYNNMFCAGFHEGGRDSCQGDSGGPHVTEVEGTSFLTGIISWGEECAMKGKYGIYTKVSRYVNWIKSKTKLT
In turn, B4 yielded a K0.5-mut/K0.5-wt of 279 fold.

B5: FIXa K228N/K247N/N249S (protein)
chain 1: YNSGKLEEFVQGNLERECMEEKCSFEEAREVFENTERTTEFWKQYVDGDQCESNPCLNGGSCKDDINSYECWCPFGFEGKNCELDVTCNIKNGRCEQFCKNSADNKVVCSCTEGYRLAENQKSCEPAVPFPCGRVSVSQTSKLTR
chain 2: VVGGEDAKPGQFPWQVVLNGKVDAFCGGSIVNEKWIVTAAHCVETGVNITVVAGEHNIEETEHTEQNRSVIRIIPHHNYNAAINKYNHDIALLELDEPLVLNSYVTPICIADKEYTNIFLKFGSGYVSGWGRVFHKGRSALVLQYLRVPLVDRATCLRSTKFTIYNNMFCAGFHEGGRDSCQGDSGGPHVTEVEGTSFLTGIISWGEECAMKGKYGIYTKVSRYVNWIKEKTKLT
For the protein B5, the K0.5-mut/K0.5-wt was 4.4 fold.
